The record followed here is patent US20220169695A1 (published 2022).

This assay addresses T1, NY-ESO-1 peptide on HLA-C*03:04 (human).
T1 peptide: LAMPFATPM
Description: multimer staining. An excerpt:
FIGS. 4A-4I are graphical representations of positive staining of Jurkat 76/CD8 cells transduced with C*03:04/NY-ESO-1₉₂₋₁₀₀ TCR genes with a cognate multimer. Jurkat 76/CD8 cells transduced with the C*03:04/NY-ESO-1₉₂₋₁₀₀ TCR (FIGS. 4B, 4E, and 4H) were stained with the C*03:04/NY-ESO-1₉₂₋₁₀₀ multimer (FIG. 4B). The C*03:04/HIV gag₁₆₄₋₁₇₂ multimer (FIGS. 4D, 4E, and 4F), C*07:02/MAGE-A1₂₈₉₋₂₉₇ TCR (clone CL2; FIGS. 4C, 4F, and 4I), and an unexchanged multimer (FIGS. 4G, 4H, and 4I) were employed as controls, as well as Jurkat 76/CD8 not transduced with a TCR (FIGS. 4A, 4D, and 4G). The percentage of multimer⁺ CD8⁺ cells is shown.
T cells (1×10⁵) were incubated for 30 minutes at 37° C. in the presence of 50 nM dasatinib (LC laboratories). The cells were then washed and incubated with 5-10 μg/ml of multimer for 30 minutes at room temperature, and R-phycoerythrin-conjugated AffiniPure Fab fragment goat anti-mouse IgG1 (Jackson ImmunoResearch Laboratories) was added for 15 minutes at 4° C. Next, the cells were washed three times and costained with an anti-CD8 mAb for 15 minutes at 4° C. Dead cells were finally discriminated using the LIVE/DEAD Fixable Dead Cell Stain kit.

B1: C*03:04/NY-ESO-1 92-100 TCR (TCR, V domains shown)
Valpha: AQSVTQPDIHITVSEGASLELRCNYSYGATPYLFWYVQSPGQGLQLLLKYFSGDTLVQGIKGFEAEFKRSQSSFNLRKPSVHWSDAAEYFCAGMDSNYQLIWGAGTKLIIKP
Vbeta: NAGVTQTPKFQVLKTGQSMTLQCAQDMNHNSMYWYRQDPGMGLRLIYYSASEGTTDKGEVPNGYNVSRLNKREFSLRLESAAPSQTSVYFCASSLPLGYEQYFGPGTRLTVT
In the case of B1, the binding result is “recognises”.
